Read-outs that look alike come from different tables or passages of the source.
Key:
[1] = molecular target: T1, mouse serum albumin (MSA), full length (mouse, UniProt P07724 25-608); assay: SPR off-rate ratio to parent ADX_7016_A01, MSA, 25 C
T1 construct: mature; Immobilized on CM5 chip (SPR) or coated on plates (ELISA); also called mouse albumin; murine serum albumin
Protocol: (§1) Measurements were conducted by SPR and ELISA. SPR was conducted as follows. Full length HSA or mouse albumin was immobilized on a Biacore T series CM5 chip at 15 ug/mL in 10 mM acetate buffer (pH 5.0) buffer using standard NHS/EDC coupling, to a surface density of approximately 1000-1100 RU. For off-rate measurements at 25° C., PKE Adnectins were applied as analytes at 500 nM in HBS-P+(0.01 M HEPES pH 7.4, 0.15 M NaCl, 0.005% v/v Surfactant P20) running buffer at a flow rate of 20ul/min for 120 s over the immobilized albumins, followed by 800 s for dissociation. […] Regeneration of the chip surface between cycles was accomplished with two 30 second pulses of 10 mM Glycine, pH 2.0. Kinetic traces of reference-subtracted sensorgrams were fit to a 1:1 binding model for affinity using the Biaevaluation software. Only the dissociation phase was fit for determination of off-rates.

[2] = molecular target: T1, mouse serum albumin (MSA), full length; assay: SPR off-rate, immobilized MSA, 500 nM Adnectin, 25 C
Protocol: as §1

[3] = molecular target: T2, human serum albumin (HSA), full length (human, UniProt P02768 25-609); assay: SPR off-rate ratio to parent ADX_7016_A01, HSA, 25 C
T2 construct: mature; Immobilized on CM5 chip (SPR) or coated on plates (ELISA)
T2 sequence (P02768 25-609): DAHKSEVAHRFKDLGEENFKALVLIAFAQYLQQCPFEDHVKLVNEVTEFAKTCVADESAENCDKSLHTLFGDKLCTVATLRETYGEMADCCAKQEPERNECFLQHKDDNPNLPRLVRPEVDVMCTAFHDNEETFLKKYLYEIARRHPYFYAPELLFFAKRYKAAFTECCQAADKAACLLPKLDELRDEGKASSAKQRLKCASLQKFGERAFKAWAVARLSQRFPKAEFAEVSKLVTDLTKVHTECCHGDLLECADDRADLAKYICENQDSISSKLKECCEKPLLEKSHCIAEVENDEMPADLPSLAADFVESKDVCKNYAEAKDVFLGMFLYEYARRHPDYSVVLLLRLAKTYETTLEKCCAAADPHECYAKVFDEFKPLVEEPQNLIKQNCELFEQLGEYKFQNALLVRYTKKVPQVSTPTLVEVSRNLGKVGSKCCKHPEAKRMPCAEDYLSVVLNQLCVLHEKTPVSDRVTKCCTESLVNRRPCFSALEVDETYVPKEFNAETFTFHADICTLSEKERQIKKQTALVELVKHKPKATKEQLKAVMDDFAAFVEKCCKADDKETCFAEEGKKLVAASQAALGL
Protocol: as §1

[4] = molecular target: T1, mouse serum albumin (MSA), full length; assay: SPR, immobilized MSA, 500 nM Adnectin, 25 C
Protocol: as §1

[5] = molecular target: T2, human serum albumin (HSA), full length; assay: SPR off-rate, immobilized HSA, 500 nM Adnectin, 25 C
Protocol: as §1

[6] = molecular target: T2, human serum albumin (HSA), full length; assay: SPR, immobilized HSA, 500 nM Adnectin, 25 C
Protocol: as §1

[7] = molecular target: T1, mouse serum albumin (MSA), full length; assay: SPR off-rate, immobilized MSA, 500 nM Adnectin, 25 C; remark: listed apart in the source
Protocol: as §1

[8] = molecular target: T2, human serum albumin (HSA), full length; assay: SPR off-rate ratio to parent ADX_7016_A01, HSA, 25 C; remark: listed apart in the source
Protocol: as §1

[9] = molecular target: T1, mouse serum albumin (MSA), full length; assay: SPR off-rate ratio to parent ADX_7016_A01, MSA, 25 C; remark: listed apart in the source
Protocol: as §1

[10] = molecular target: T1, mouse serum albumin (MSA), full length; assay: direct binding ELISA, coated MSA, anti-His-HRP; parameters: unit not given here
Protocol: (§2) Direct binding ELISA assays were conducted as follows. Full length human and murine serum albumin at 10ug/ml in PBS were coated on Nunc Maxisorp plates overnight at 4° C. Plates were blocked in casein/PBS buffer. PKE Adnectins were allowed to bind over a 4-point concentration range of 0.032-4 uM for HSA and 0.008-1 uM for MSA. Bound Adnectin was detected by anti-His antibody conjugated with HRP (horseradish peroxidase) diluted 1:1500 in casein/PBS. Plates were developed with TMB substrate and absorbance read at 450 nm. Adnectins were binned as high, medium and low affinity binders based on the observed Ymax of the concentration response curves.

[11] = molecular target: T2, human serum albumin (HSA), full length; assay: direct binding ELISA, coated HSA, anti-His-HRP; parameters: unit not given here
Protocol: as §2

[12] = molecular target: T2, human serum albumin (HSA), full length; assay: SPR off-rate, immobilized HSA, 500 nM Adnectin, 25 C; remark: listed apart in the source
Protocol: as §1

[13] = molecular target: T1, mouse serum albumin (MSA), full length; assay: direct binding ELISA, coated MSA, anti-His-HRP
Protocol: as §2

Binder	MSA kd/Parent kd [1]	koff [2]	HSA kd/Parent kd [3]	MSA Binding (RU) [4]	koff [5]	HSA Binding (RU) [6]	koff [7]	HSA kd/Parent kd [8]	MSA kd/Parent kd [9]	MSA DB ELISA (OD450) Ymax obs [10]	MSA DB ELISA (OD450) Ymin obs [10]	HSA DB ELISA (OD450) Ymax obs [11]	HSA DB ELISA (OD450) Ymin obs [11]	koff [12]	MSA DB ELISA YMIN OBS (OD450) [13]
ADX_6727_A07 (Y44S/K85T) (designed binder, Full His6-tagged entry) MGVSDVPRDLEVVAATPTSLLISWDAPAVTVRYYRITYGREVQKYSDLGPLYISQEFTVPGSKSTATISGLKPGVDYTITVYAVTGSGESPASSTPISINYRTEIDKPSQHHHHHH	5.2	0.00222 s⁻¹	4.8	56 RU	0.00129 s⁻¹	28 RU									
ADX_6727_B09 (L38T/K85T) (designed binder, Full His6-tagged entry) MGVSDVPRDLEVVAATPTSLLISWDAPAVTVRYYRITYGREVQKYSDTGPLYIYQEFTVPGSKSTATISGLKPGVDYTITVYAVTGSGESPASSTPISINYRTEIDKPSQHHHHHH		0.0262 s⁻¹			0.00921 s⁻¹		0.0262 s⁻¹	34	61.2	27	1	16	2	0.00921 s⁻¹	1 OD450
ADX_6727_G10 (Y35S/K85A) (designed binder, Full His6-tagged entry) MGVSDVPRDLEVVAATPTSLLISWDAPAVTVRYYRITYGREVQKSSDLGPLYIYQEFTVPGSKSTATISGLKPGVDYTITVYAVTGSGESPASSAPISINYRTEIDKPSQHHHHHH	3.2	0.00138 s⁻¹	3.3	63 RU	0.000892 s⁻¹	27 RU	0.00138 s⁻¹	3.3	3.2	100	54	96	54	0.000892 s⁻¹	
ADX_6727_H10 (L41S/K85S) (designed binder, Full His6-tagged entry) MGVSDVPRDLEVVAATPTSLLISWDAPAVTVRYYRITYGREVQKYSDLGPSYIYQEFTVPGSKSTATISGLKPGVDYTITVYAVTGSGESPASSSPISINYRTEIDKPSQHHHHHH	34	0.0146 s⁻¹	32	35 RU	0.0086 s⁻¹	19 RU									1 OD450
ADX_6727_B04 (Y35S/K85S) (designed binder, Full His6-tagged entry) MGVSDVPRDLEVVAATPTSLLISWDAPAVTVRYYRITYGREVQKSSDLGPLYIYQEFTVPGSKSTATISGLKPGVDYTITVYAVTGSGESPASSSPISINYRTEIDKPSQHHHHHH	3.3	0.00142 s⁻¹	4.1	62 RU	0.0011 s⁻¹	23 RU	0.00142 s⁻¹	4.1	3.3	95	74	99	62	0.0011 s⁻¹	
ADX_6727_F07 (Y44S/K85A) (designed binder, Full His6-tagged entry) MGVSDVPRDLEVVAATPTSLLISWDAPAVTVRYYRITYGREVQKYSDLGPLYISQEFTVPGSKSTATISGLKPGVDYTITVYAVTGSGESPASSAPISINYRTEIDKPSQHHHHHH	6.5	0.00277 s⁻¹	6.5	62 RU	0.00176 s⁻¹	35 RU									
ADX_6727_D03 (L41S) (designed binder, Full His6-tagged entry) MGVSDVPRDLEVVAATPTSLLISWDAPAVTVRYYRITYGREVQKYSDLGPSYIYQEFTVPGSKSTATISGLKPGVDYTITVYAVTGSGESPASSKPISINYRTEIDKPSQHHHHHH	31.3	0.0134 s⁻¹	28.9	43 RU	0.00777 s⁻¹	24 RU									1 OD450
ADX_6727_H06 (Y44Q/K85T) (designed binder, Full His6-tagged entry) MGVSDVPRDLEVVAATPTSLLISWDAPAVTVRYYRITYGREVQKYSDLGPLYIQQEFTVPGSKSTATISGLKPGVDYTITVYAVTGSGESPASSTPISINYRTEIDKPSQHHHHHH	33.5	0.0143 s⁻¹	52.7	43 RU	0.0142 s⁻¹	24 RU									1 OD450
ADX_6727_F10 (Y35A/K85T) (designed binder, Full His6-tagged entry) MGVSDVPRDLEVVAATPTSLLISWDAPAVTVRYYRITYGREVQKASDLGPLYIYQEFTVPGSKSTATISGLKPGVDYTITVYAVTGSGESPASSTPISINYRTEIDKPSQHHHHHH	3.6	0.00156 s⁻¹	4	55 RU	0.00109 s⁻¹	22 RU									
ADX_6727_G04 (Y44S/K85S) (designed binder, Full His6-tagged entry) MGVSDVPRDLEVVAATPTSLLISWDAPAVTVRYYRITYGREVQKYSDLGPLYISQEFTVPGSKSTATISGLKPGVDYTITVYAVTGSGESPASSSPISINYRTEIDKPSQHHHHHH	6	0.00259 s⁻¹	6.6	56 RU	0.00177 s⁻¹	28 RU									
ADX_6727_H08 (L38T/K85T) (designed binder, Full His6-tagged entry; Printed with the same substitutions as ADX_6727_B09) MGVSDVPRDLEVVAATPTSLLISWDAPAVTVRYYRITYGREVQKYSDTGPLYIYQEFTVPGSKSTATISGLKPGVDYTITVYAVTGSGESPASSTPISINYRTEIDKPSQHHHHHH		0.0284 s⁻¹			0.01 s⁻¹										1 OD450
ADX_6727_G06 (Y35A/K85S) (designed binder, Full His6-tagged entry) MGVSDVPRDLEVVAATPTSLLISWDAPAVTVRYYRITYGREVQKASDLGPLYIYQEFTVPGSKSTATISGLKPGVDYTITVYAVTGSGESPASSSPISINYRTEIDKPSQHHHHHH	3.3	0.00143 s⁻¹	3.9	66 RU	0.00105 s⁻¹	26 RU									

From patent US20180258158A1 (Bristol-Myers Squibb, published 2018)
